B1: SBD of Fbs1 (117–297), wild type [murine] / ribonuclease B [modified: a single high-mannose oligosaccharide; a single high-mannose oligosaccharide] [bovine] (parent)
chain 1: FYFLSKRRRNLLRNPCGEEDLEGWSDVEHGGDGWRVEELPGDNGVEFTQDDSVKKYFASSFEWCRKAQVIDLQAEGYWEELLDTTQPAIVVKDWYSGRTDAGSLYELTVRLLSENEDVLAEFATGQVAVPEDGSWMEISHTFIDYGPGVRFVRFEHGGQDSVYWKGWFGARVTNSSVWVEP
chain 2: KETAAAKFERQHMDSSTSAASSSNYCNQMMKSRNLTKDRCKPVNTFVHESLADVQAVCSQKNVACKNGQTNCYQSYSTMSITDCRETGSSKYPNCAYKTTQANKHIIVACEGNPYVPVHFDASV

Variants of: B1
Experiment: pull-down
Conditions: with ribonuclease B [modified: a single high-mannose oligosaccharide, parent: 100, read off a plot

| percent of parent [%] | Variant |
| --- | --- |
| 100 | chain 1 A101C |
| 48 | chain 1 T99P L104K |
| 49 | chain 1 T99P |
| 25 | chain 1 T99P A101C |
| 110 | chain 1 L104K |
| 110 | chain 1 A101C L104K |

— article PMC4603797, “The Structural Differences between a Glycoprotein Specific F-Box Protein Fbs1 and Its Homologous Protein FBG3” (PLoS ONE, 2015)
